Experiments:
[1] = AFM, tether rupture events per retraction; conditions: glycan lost; control: DC-SIGN-WT
[2] = cell surface expression by flow cytometry, CHO; conditions: glycan lost; control: DC-SIGN-WT
[3] = linear fit to averaged AFM retraction FD-curves; conditions: glycan lost; control: untreated CHO-DC-SIGN-WT

B1: DC-SIGN (CD209): N80A (protein)
parent chain: MSDSKEPRLQQLGLLEEEQLRGLGFRQTRGYKSLAGCLGHGPLVLQLLSFTLLAGLLVQVSKVPSSISQEQSRQDAIYQNLTQLKAAVGELSEKSKLQEIYQELTQLKAAVGELPEKSKLQEIYQELTRLKAAVGELPEKSKLQEIYQELTWLKAAVGELPEKSKMQEIYQELTRLKAAVGELPEKSKQQEIYQELTRLKAAVGELPEKSKQQEIYQELTRLKAAVGELPEKSKQQEIYQELTQLKAAVERLCHPCPWEWTFFQGNCYFMSNSQRNWHDSITACKEVGAQLVVIKSAEEQNFLQLQSSRSNRFTWMGLSDLNQEGTWQWVDGSPLLPSFKQYWNRGEPNNVGEEDCAEFSGNGWNDDKCNLAKFWICKKSAASCSRDEEQFLSPAPATPNPPPA
other: membrane tether formation [1]: no change | expression_or_secretion [2]: no change | other: adhesion-site elasticity (cell stiffening), fold_change [3]: decreases
